In the experiment the target is human p23 co-chaperone (human) (UniProt Q15185). The experiment can be described thus: SEC; HiPrep Sephacryl S-200; each protein alone; 50mM Hepes, 150mM NaCl, 50mM KCl, 10mM MgCl2, 1mM DTT, pH 7.5; molecular weight interpolated from standards. A general note: SEC sorts molecules by how far they enter the pores of the column.

In general, stoichiometry N refers to a count of units in the complex or per binding partner. On to “human p23 co-chaperone (from UniProt Q15185 1-160) (natural protein)”, for which the stoichiometry N turned out to be 2.

Source of the values: article PMC3248148.
